Substitutions are numbered along the chain they refer to. Names may count otherwise.

The source of these data is patent publication US11499162B2, “Plants having increased tolerance to herbicides” (BASF SE, priority 2016, dated 2022).

B1: F89A: mutated TriA variant of SEQ ID NO: 2 (protein)
chain: MQTLSIQHGTLVTMDQYRRVLGDSWVHVQDGRIVALGVHAESVPPPADRVIDARGKVVLPGFINAHTHVNQILLRGGPSHGRQLYDWLANVLYPGQKAMRPEDVAVAVRLYCAEAVRSGITTINDNADSAIYPGNIEAAMAVYGEVGVRVVYARMFFDRMDGRIQGYVDALKARSPQVELCSIMEETAVAKDRITALSDQYHGTAGGRISVWPAPAITPAVTVEGMRWAQAFARDRAVMWTLHMAESDHDERLHWMSPAEYMECYGLLDERLQVAHCVYFDRKDVRLLHRHNVKVASQVVSNAYLGSGVAPVPEMVERGMAVGIGTDDGNCNDSVNMIGDMKFMAHIHRAVHRDADVLTPEKILEMATIDGARSLGMDHEIGSIETGKRADLILLDLRHPQTTPHHHLAATIVFQAYGNEVDTVLIDGNVVMENRRLSFLPPERELAFLEEAQSRATAILQRANMVANPAWRSL
modifications: Pseudomonas
B2: Y85LL88AL92AY93LQ96TD128G: mutated TriA variant of SEQ ID NO: 2 (protein)
chain: B1 chain with Y85L, L88A, A89F, L92A, Y93L, Q96T, D128G
modifications: Pseudomonas
B3: M160G: mutated TriA variant of SEQ ID NO: 2 (protein)
chain: B1 chain with A89F, M160G
modifications: Pseudomonas
B4: D328A: mutated TriA variant of SEQ ID NO: 2 (protein)
chain: B1 chain with A89F, D328A
modifications: Pseudomonas
B5: Y85LL88AL92AY93VQ96TD128G: mutated TriA variant of SEQ ID NO: 2 (protein)
chain: B1 chain with Y85L, L88A, A89F, L92A, Y93V, Q96T, D128G
modifications: Pseudomonas
B6: Y85LL88AF89AL92AY93LQ96TD128G: mutated TriA variant of SEQ ID NO: 2 (protein)
chain: B1 chain with Y85L, L88A, L92A, Y93L, Q96T, D128G
modifications: Pseudomonas
B7: Y85LF89AL92AY93L: mutated TriA variant of SEQ ID NO: 2 (protein)
chain: B1 chain with Y85L, L92A, Y93L
modifications: Pseudomonas
B8: Y85LL88AL92AY93V: mutated TriA variant of SEQ ID NO: 2 (protein)
chain: B1 chain with Y85L, L88A, A89F, L92A, Y93V
modifications: Pseudomonas
B9: D328G: mutated TriA variant of SEQ ID NO: 2 (protein)
chain: B1 chain with A89F, D328G
modifications: Pseudomonas
B10: N70VQ71T: mutated TriA variant of SEQ ID NO: 2 (protein)
chain: B1 chain with N70V, Q71T, A89F
modifications: Pseudomonas
B11: Y93F: mutated TriA variant of SEQ ID NO: 2 (protein)
chain: B1 chain with A89F, Y93F
modifications: Pseudomonas
B12: D250S: mutated TriA variant of SEQ ID NO: 2 (protein)
chain: B1 chain with A89F, D250S
modifications: Pseudomonas
B13: N70VQ71V: mutated TriA variant of SEQ ID NO: 2 (protein)
chain: B1 chain with N70V, Q71V, A89F
modifications: Pseudomonas
B14: Y85LL92AY93LD250S: mutated TriA variant of SEQ ID NO: 2 (protein)
chain: B1 chain with Y85L, A89F, L92A, Y93L, D250S
modifications: Pseudomonas
B15: Y93A: mutated TriA variant of SEQ ID NO: 2 (protein)
chain: B1 chain with A89F, Y93A
modifications: Pseudomonas
B16: F89AL92AY93L: mutated TriA variant of SEQ ID NO: 2 (protein)
chain: B1 chain with L92A, Y93L
modifications: Pseudomonas
B17: Y85LL92AY93V: mutated TriA variant of SEQ ID NO: 2 (protein)
chain: B1 chain with Y85L, A89F, L92A, Y93V
modifications: Pseudomonas
B18: Y85LL88AF89AL92AY93VQ96TD128G: mutated TriA variant of SEQ ID NO: 2 (protein)
chain: B1 chain with Y85L, L88A, L92A, Y93V, Q96T, D128G
modifications: Pseudomonas
B19: L88AL92AY93L: mutated TriA variant of SEQ ID NO: 2 (protein)
chain: B1 chain with L88A, A89F, L92A, Y93L
modifications: Pseudomonas
B20: L92AY93LD250S: mutated TriA variant of SEQ ID NO: 2 (protein)
chain: B1 chain with A89F, L92A, Y93L, D250S
modifications: Pseudomonas
B21: Y85LL88AL92AY93L: mutated TriA variant of SEQ ID NO: 2 (protein)
chain: B1 chain with Y85L, L88A, A89F, L92A, Y93L
modifications: Pseudomonas
B22: Y85LL92AY93LD128AD250S: mutated TriA variant of SEQ ID NO: 2 (protein)
chain: B1 chain with Y85L, A89F, L92A, Y93L, D128A, D250S
modifications: Pseudomonas
B23: Y93V: mutated TriA variant of SEQ ID NO: 2 (protein)
chain: B1 chain with A89F, Y93V
modifications: Pseudomonas
B24: L88AL92AY93V: mutated TriA variant of SEQ ID NO: 2 (protein)
chain: B1 chain with L88A, A89F, L92A, Y93V
modifications: Pseudomonas
B25: Y93L: mutated TriA variant of SEQ ID NO: 2 (protein)
chain: B1 chain with A89F, Y93L
modifications: Pseudomonas
B26: F89LL92AY93L: mutated TriA variant of SEQ ID NO: 2 (protein)
chain: B1 chain with A89L, L92A, Y93L
modifications: Pseudomonas

The format of the data set is biochemical. The following applies: pH 7.2. In a few lines:
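% degradation measured against empty-vector control by UPLC-HR-MS, with product identity confirmed by exact mass and MS-MS. Conditions: 25 mM sodium phosphate pH 7.2, 30 °C, substrates at 1–10 nM. Enzyme source: TriA-expressing E. coli resting cells incubated with azines, melamine or atrazine.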
With B1, the “Degradation in % of 6-cyclopentyl-N4-(2,3,4,5,6-pentafluorophenyl)-1,3,5-triazine-2,4-diamine” value stood at 26% and the “Degradation in % of Melamine” value turned out to be 100%.
For B2 the same measures were 12% and 0%.
Consider B3, for which the “Degradation in % of 6-cyclopentyl-N4-(2,3,4,5,6-pentafluorophenyl)-1,3,5-triazine-2,4-diamine” value was 29% and the “Degradation in % of Melamine” value was determined as 100%.
B4: the “Degradation in % of 6-cyclopentyl-N4-(2,3,4,5,6-pentafluorophenyl)-1,3,5-triazine-2,4-diamine” value amounted to 95% and the “Degradation in % of Melamine” value is recorded as 5%.
B5: the “Degradation in % of 6-cyclopentyl-N4-(2,3,4,5,6-pentafluorophenyl)-1,3,5-triazine-2,4-diamine” value was 14% and the “Degradation in % of Melamine” value stood at 0%.
For B6 the same measures were 9% and 0%.
With B7, the “Degradation in % of 6-cyclopentyl-N4-(2,3,4,5,6-pentafluorophenyl)-1,3,5-triazine-2,4-diamine” value was found to be 15% and the “Degradation in % of Melamine” value is 0%.
Regarding B8, the “Degradation in % of 6-cyclopentyl-N4-(2,3,4,5,6-pentafluorophenyl)-1,3,5-triazine-2,4-diamine” value stood at 13% and the “Degradation in % of Melamine” value was 0%.
For B9, in that order: 19% and 0%.
Consider B10, for which the “Degradation in % of 6-cyclopentyl-N4-(2,3,4,5,6-pentafluorophenyl)-1,3,5-triazine-2,4-diamine” value was determined as 0% and the “Degradation in % of Melamine” value is recorded as 0%.
Consider B11, for which the “Degradation in % of 6-cyclopentyl-N4-(2,3,4,5,6-pentafluorophenyl)-1,3,5-triazine-2,4-diamine” value is 33% and the “Degradation in % of Melamine” value came to 98%.
For B12 the same measures were 16% and 0%.
For B13 the same measures were 0% and 0%.
For B14, in that order: 36% and 0%.
In the case of B15, the “Degradation in % of 6-cyclopentyl-N4-(2,3,4,5,6-pentafluorophenyl)-1,3,5-triazine-2,4-diamine” value amounted to 66% and the “Degradation in % of Melamine” value was 100%.
For B16 the same measures were 99% and 7%.
As for B17, the “Degradation in % of 6-cyclopentyl-N4-(2,3,4,5,6-pentafluorophenyl)-1,3,5-triazine-2,4-diamine” value is on record as 24% and the “Degradation in % of Melamine” value was found to be 0%.
For B18, in that order: 13% and 0%.
For the molecule B19, the “Degradation in % of 6-cyclopentyl-N4-(2,3,4,5,6-pentafluorophenyl)-1,3,5-triazine-2,4-diamine” value was 35% and the “Degradation in % of Melamine” value was found to be 0%.
For B20 the same measures were 99% and 0%.
Consider B21, for which the “Degradation in % of 6-cyclopentyl-N4-(2,3,4,5,6-pentafluorophenyl)-1,3,5-triazine-2,4-diamine” value is listed as 13% and the “Degradation in % of Melamine” value stood at 0%.
For B22, the “Degradation in % of 6-cyclopentyl-N4-(2,3,4,5,6-pentafluorophenyl)-1,3,5-triazine-2,4-diamine” value came to 9% and the “Degradation in % of Melamine” value is listed as 0%.
Regarding B23, the “Degradation in % of 6-cyclopentyl-N4-(2,3,4,5,6-pentafluorophenyl)-1,3,5-triazine-2,4-diamine” value came to 98% and the “Degradation in % of Melamine” value is reported as 100%.
For B24, in that order: 25% and 0%.
For B25, in that order: 82% and 100%.
For the molecule B26, the “Degradation in % of 6-cyclopentyl-N4-(2,3,4,5,6-pentafluorophenyl)-1,3,5-triazine-2,4-diamine” value is recorded as 35% and the “Degradation in % of Melamine” value was found to be 0%.
